# In publication PMC4434323:
# How the values were obtained:
# [1] = target: T1, nhr-168 (C50B6.8) (Caenorhabditis elegans) (UniProt P91983)
# T1 sequence: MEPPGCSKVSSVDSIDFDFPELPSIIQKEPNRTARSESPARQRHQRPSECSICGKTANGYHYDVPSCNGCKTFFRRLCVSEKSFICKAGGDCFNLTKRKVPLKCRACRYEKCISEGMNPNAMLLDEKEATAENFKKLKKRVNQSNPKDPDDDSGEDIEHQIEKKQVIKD
# [2] = target: T2, odr-7 (T18D3.2) (Caenorhabditis elegans) (UniProt P41933)
# T2 sequence: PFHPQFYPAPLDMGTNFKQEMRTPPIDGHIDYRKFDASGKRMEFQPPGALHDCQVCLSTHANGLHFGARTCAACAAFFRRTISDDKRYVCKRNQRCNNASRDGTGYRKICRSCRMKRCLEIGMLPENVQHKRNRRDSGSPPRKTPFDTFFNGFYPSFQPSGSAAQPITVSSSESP
# [3] = target: T3, mab-23 (C32C4.5) (Caenorhabditis elegans) (UniProt G5ECK3)
# T3 sequence: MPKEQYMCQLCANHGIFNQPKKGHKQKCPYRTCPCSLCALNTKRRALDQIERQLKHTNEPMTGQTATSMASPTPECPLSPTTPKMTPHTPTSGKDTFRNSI
# [4] = target: T4, K02D7.2 (K02D7.2) (Caenorhabditis elegans) (UniProt O45103)
# T4 sequence: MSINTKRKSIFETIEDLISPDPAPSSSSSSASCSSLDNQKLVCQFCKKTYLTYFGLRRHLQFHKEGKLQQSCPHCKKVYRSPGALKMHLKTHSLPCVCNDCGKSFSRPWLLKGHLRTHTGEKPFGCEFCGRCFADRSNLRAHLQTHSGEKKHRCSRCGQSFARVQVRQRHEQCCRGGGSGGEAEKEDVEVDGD
# [5] = target: T5, tbx-33 (Y66A7A.8) (Caenorhabditis elegans) (UniProt O45291)
# T5 sequence: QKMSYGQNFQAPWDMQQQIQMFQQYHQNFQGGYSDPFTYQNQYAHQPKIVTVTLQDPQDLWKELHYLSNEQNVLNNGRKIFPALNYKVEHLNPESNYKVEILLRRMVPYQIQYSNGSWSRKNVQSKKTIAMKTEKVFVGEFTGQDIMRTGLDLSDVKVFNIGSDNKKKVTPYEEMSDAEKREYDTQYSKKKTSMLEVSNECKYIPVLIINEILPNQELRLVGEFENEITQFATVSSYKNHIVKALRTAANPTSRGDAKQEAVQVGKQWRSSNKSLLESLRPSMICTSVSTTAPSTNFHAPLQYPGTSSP
# [6] = target: T6, atf-2 (K08F8.2) (Caenorhabditis elegans) (UniProt Q21361)
# T6 sequence: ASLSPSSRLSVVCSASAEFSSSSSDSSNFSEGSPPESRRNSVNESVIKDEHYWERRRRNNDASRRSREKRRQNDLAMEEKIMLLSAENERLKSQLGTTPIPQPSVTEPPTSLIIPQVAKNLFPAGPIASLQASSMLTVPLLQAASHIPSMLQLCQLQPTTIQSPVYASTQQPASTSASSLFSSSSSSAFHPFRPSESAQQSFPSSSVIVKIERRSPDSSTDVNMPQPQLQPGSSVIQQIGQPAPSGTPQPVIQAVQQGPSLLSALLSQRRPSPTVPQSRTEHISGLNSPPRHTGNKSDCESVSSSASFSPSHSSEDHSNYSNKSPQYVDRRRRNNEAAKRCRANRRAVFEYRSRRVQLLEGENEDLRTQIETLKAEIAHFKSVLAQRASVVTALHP
# [7] = system: scrt-1 (C55C2.1) (Caenorhabditis elegans)
# Chain of scrt-1 (C55C2.1) (Caenorhabditis elegans) (chain, as listed by the source): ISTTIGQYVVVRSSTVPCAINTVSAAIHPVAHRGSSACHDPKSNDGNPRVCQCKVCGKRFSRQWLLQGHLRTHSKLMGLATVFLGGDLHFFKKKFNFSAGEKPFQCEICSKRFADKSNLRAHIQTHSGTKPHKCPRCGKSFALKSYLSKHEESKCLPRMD
# [8] = target: T7, T07C12.11 (T07C12.11) (Caenorhabditis elegans) (UniProt G5EGG9)
# T7 sequence: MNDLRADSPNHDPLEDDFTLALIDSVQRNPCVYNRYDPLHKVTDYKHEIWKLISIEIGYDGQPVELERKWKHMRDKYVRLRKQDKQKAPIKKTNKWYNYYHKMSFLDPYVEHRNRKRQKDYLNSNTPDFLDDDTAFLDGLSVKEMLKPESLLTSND
# [9] = target: T8, Y75B8A.6 (Y75B8A.6) (Caenorhabditis elegans) (UniProt A0A168H365)
# T8 sequence: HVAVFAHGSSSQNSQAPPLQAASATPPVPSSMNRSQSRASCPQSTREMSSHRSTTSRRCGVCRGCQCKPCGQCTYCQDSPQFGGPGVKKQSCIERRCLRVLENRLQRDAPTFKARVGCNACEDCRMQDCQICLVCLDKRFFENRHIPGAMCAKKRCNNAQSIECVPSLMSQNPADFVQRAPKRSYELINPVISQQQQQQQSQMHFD
# [10] = target: T9, dmd-6 (F13G11.1) (Caenorhabditis elegans) (UniProt O62159)
# T9 sequence: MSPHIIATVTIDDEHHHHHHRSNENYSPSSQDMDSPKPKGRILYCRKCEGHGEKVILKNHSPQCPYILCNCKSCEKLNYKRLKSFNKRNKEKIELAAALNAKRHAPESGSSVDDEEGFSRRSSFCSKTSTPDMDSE
# [11] = target: T10, Y51H4A.4 (Y51H4A.4) (Caenorhabditis elegans) (UniProt Q9NAE4)
# T10 sequence: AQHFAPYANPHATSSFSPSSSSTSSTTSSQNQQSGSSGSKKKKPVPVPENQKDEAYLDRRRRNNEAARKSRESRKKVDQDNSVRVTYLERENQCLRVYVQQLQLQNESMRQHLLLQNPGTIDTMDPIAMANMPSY
# [12] = target: T11, Y61A9LA.9 (Y61A9LA.9) (Caenorhabditis elegans) (UniProt Q9N312)
# T11 sequence: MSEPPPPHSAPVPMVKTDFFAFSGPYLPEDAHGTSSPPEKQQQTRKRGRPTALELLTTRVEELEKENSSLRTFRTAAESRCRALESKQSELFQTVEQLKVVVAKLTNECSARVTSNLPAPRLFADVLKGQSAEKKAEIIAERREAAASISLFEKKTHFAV
# [13] = target: T12, F55C5.11 (F55C5.11) (Caenorhabditis elegans) (UniProt Q1ZXU0)
# T12 sequence: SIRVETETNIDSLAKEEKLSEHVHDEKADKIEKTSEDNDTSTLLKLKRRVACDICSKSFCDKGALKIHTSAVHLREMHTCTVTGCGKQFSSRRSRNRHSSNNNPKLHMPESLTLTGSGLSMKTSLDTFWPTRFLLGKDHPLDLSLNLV
# [14] = target: egl-13 (T22B7.1) (Caenorhabditis elegans) (UniProt Q23045)
# Chain of egl-13 (T22B7.1) (Caenorhabditis elegans) (Q23045 279-447): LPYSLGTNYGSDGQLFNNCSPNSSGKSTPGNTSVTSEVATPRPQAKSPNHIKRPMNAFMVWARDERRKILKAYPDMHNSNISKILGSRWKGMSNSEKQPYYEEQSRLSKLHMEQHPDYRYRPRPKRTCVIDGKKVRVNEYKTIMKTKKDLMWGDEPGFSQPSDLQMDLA
# [15] = target: T13, Y44A6D.3 (Y44A6D.3) (Caenorhabditis elegans) (UniProt Q9XXE0)
# T13 sequence: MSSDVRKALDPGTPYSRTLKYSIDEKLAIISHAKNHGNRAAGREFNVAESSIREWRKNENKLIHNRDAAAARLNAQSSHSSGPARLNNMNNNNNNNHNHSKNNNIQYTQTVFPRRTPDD
sequence,measurement,setting,value
AGTACAAA (double strand) [8-mer AGTACAAA],binding signal (PBM E-score (-0.5 to 0.5)),[1],0.456
same,binding signal (PBM E-score (-0.5 to 0.5)),[2],0.451
AAAATTTC (double strand) [8-mer AAAATTTC],binding signal (PBM E-score (-0.5 to 0.5)),[3],0.47
ACAGGTGC (double strand) [8-mer ACAGGTGC],binding signal (PBM E-score (-0.5 to 0.5)),[4],0.477
ATCTCCAC (double strand) [8-mer ATCTCCAC],binding signal (PBM E-score (-0.5 to 0.5)),[5],0.485
TGGCGCAA (double strand) [8-mer TGGCGCAA],binding signal (PBM E-score (-0.5 to 0.5)),[6],0.461
AAATTATT (double strand) [8-mer AAATTATT],binding signal (PBM E-score (-0.5 to 0.5)),[3],0.454
AACCACTG (double strand) [8-mer AACCACTG],binding signal (PBM E-score (-0.5 to 0.5)),[7],0.475
AATGTTCT (double strand) [8-mer AATGTTCT],binding signal (PBM E-score (-0.5 to 0.5)),[1],0.482
TTGCGCAA (double strand) [8-mer TTGCGCAA],binding signal (PBM E-score (-0.5 to 0.5)),[8],0.493
same,binding signal (PBM E-score (-0.5 to 0.5)),[9],0.462
same,binding signal (PBM E-score (-0.5 to 0.5)),[6],0.498
AACCACTT (double strand) [8-mer AACCACTT],binding signal (PBM E-score (-0.5 to 0.5)),[7],0.476
AATGATCT (double strand) [8-mer AATGATCT],binding signal (PBM E-score (-0.5 to 0.5)),[1],0.45
ATCTCCAG (double strand) [8-mer ATCTCCAG],binding signal (PBM E-score (-0.5 to 0.5)),[5],0.474
AAATGTTC (double strand) [8-mer AAATGTTC],binding signal (PBM E-score (-0.5 to 0.5)),[10],0.469
same,binding signal (PBM E-score (-0.5 to 0.5)),[1],0.487
AGTGGTTG (double strand) [8-mer AGTGGTTG],binding signal (PBM E-score (-0.5 to 0.5)),[7],0.492
CAACCACC (double strand) [8-mer CAACCACC],binding signal (PBM E-score (-0.5 to 0.5)),[7],0.483
AATTTTTA (double strand) [8-mer AATTTTTA],binding signal (PBM E-score (-0.5 to 0.5)),[3],0.453
ATCGTCAC (double strand) [8-mer ATCGTCAC],binding signal (PBM E-score (-0.5 to 0.5)),[5],0.487
AACCACTA (double strand) [8-mer AACCACTA],binding signal (PBM E-score (-0.5 to 0.5)),[7],0.46
AAACCACT (double strand) [8-mer AAACCACT],binding signal (PBM E-score (-0.5 to 0.5)),[7],0.453
ACGTAATA (double strand) [8-mer ACGTAATA],binding signal (PBM E-score (-0.5 to 0.5)),[11],0.472
ATCGCCAC (double strand) [8-mer ATCGCCAC],binding signal (PBM E-score (-0.5 to 0.5)),[5],0.49
AAAATATT (double strand) [8-mer AAAATATT],binding signal (PBM E-score (-0.5 to 0.5)),[12],0.451
same,binding signal (PBM E-score (-0.5 to 0.5)),[10],0.485
same,binding signal (PBM E-score (-0.5 to 0.5)),[3],0.469
TTACGCAA (double strand) [8-mer TTACGCAA],binding signal (PBM E-score (-0.5 to 0.5)),[8],0.494
same,binding signal (PBM E-score (-0.5 to 0.5)),[11],0.487
same,binding signal (PBM E-score (-0.5 to 0.5)),[6],0.483
ATTGTCAC (double strand) [8-mer ATTGTCAC],binding signal (PBM E-score (-0.5 to 0.5)),[13],0.486
same,binding signal (PBM E-score (-0.5 to 0.5)),[5],0.47
TGGCGTAA (double strand) [8-mer TGGCGTAA],binding signal (PBM E-score (-0.5 to 0.5)),[6],0.452
AAAAATTT (double strand) [8-mer AAAAATTT],binding signal (PBM E-score (-0.5 to 0.5)),[10],0.481
same,binding signal (PBM E-score (-0.5 to 0.5)),[3],0.478
ATCACCAC (double strand) [8-mer ATCACCAC],binding signal (PBM E-score (-0.5 to 0.5)),[5],0.459
GTACAAAA (double strand) [8-mer GTACAAAA],binding signal (PBM E-score (-0.5 to 0.5)),[1],0.46
CACCTGTA (double strand) [8-mer CACCTGTA],binding signal (PBM E-score (-0.5 to 0.5)),[4],0.457
TTATATAA (double strand) [8-mer TTATATAA],binding signal (PBM E-score (-0.5 to 0.5)),[11],0.451
ATCTTCAC (double strand) [8-mer ATCTTCAC],binding signal (PBM E-score (-0.5 to 0.5)),[5],0.488
ACACCTGT (double strand) [8-mer ACACCTGT],binding signal (PBM E-score (-0.5 to 0.5)),[4],0.468
TTACATAA (double strand) [8-mer TTACATAA],binding signal (PBM E-score (-0.5 to 0.5)),[11],0.489
ATCGCCAG (double strand) [8-mer ATCGCCAG],binding signal (PBM E-score (-0.5 to 0.5)),[5],0.473
AAAATTTT (double strand) [8-mer AAAATTTT],binding signal (PBM E-score (-0.5 to 0.5)),[10],0.481
same,binding signal (PBM E-score (-0.5 to 0.5)),[3],0.469
AAAATGTT (double strand) [8-mer AAAATGTT],binding signal (PBM E-score (-0.5 to 0.5)),[10],0.475
same,binding signal (PBM E-score (-0.5 to 0.5)),[1],0.458
ACAGGTGG (double strand) [8-mer ACAGGTGG],binding signal (PBM E-score (-0.5 to 0.5)),[4],0.467
ATTACGTA (double strand) [8-mer ATTACGTA],binding signal (PBM E-score (-0.5 to 0.5)),[8],0.485
same,binding signal (PBM E-score (-0.5 to 0.5)),[11],0.459
AACCACCT (double strand) [8-mer AACCACCT],binding signal (PBM E-score (-0.5 to 0.5)),[7],0.464
CACCTGTC (double strand) [8-mer CACCTGTC],binding signal (PBM E-score (-0.5 to 0.5)),[4],0.456
AACAATAA (double strand) [8-mer AACAATAA],binding signal (PBM E-score (-0.5 to 0.5)),[14],0.462
GTTGCGCA (double strand) [8-mer GTTGCGCA],binding signal (PBM E-score (-0.5 to 0.5)),[15],0.493
same,binding signal (PBM E-score (-0.5 to 0.5)),[6],0.452
AACAATAC (double strand) [8-mer AACAATAC],binding signal (PBM E-score (-0.5 to 0.5)),[14],0.453
AAATATTA (double strand) [8-mer AAATATTA],binding signal (PBM E-score (-0.5 to 0.5)),[12],0.456
same,binding signal (PBM E-score (-0.5 to 0.5)),[10],0.481
same,binding signal (PBM E-score (-0.5 to 0.5)),[3],0.459
ACAACCAC (double strand) [8-mer ACAACCAC],binding signal (PBM E-score (-0.5 to 0.5)),[7],0.472
AGCAGGTG (double strand) [8-mer AGCAGGTG],binding signal (PBM E-score (-0.5 to 0.5)),[4],0.457
ATGTTCTC (double strand) [8-mer ATGTTCTC],binding signal (PBM E-score (-0.5 to 0.5)),[1],0.465
